Patent US20080261241A1, “Targeted ubiquitination of proteins and screening methods using a new class of ubiquitin ligase proteins” (INSTITUT PASTEUR, priority 2007, published 2008)
Peptide text beside a SMILES is read from it. * marks the point of attachment. Cbz = O=C(OCc1ccccc1)*

Key:
proteasome = assay: Proteasome inhibition: Ste7 disappearance in MG132-permeable erg6 mutant; format: cell-based, Saccharomyces cerevisiae; conditions: MG132 100 μM, 2 h
Experimental: To test if the IpaH-mediated disappearance of Ste7 required proteasome function, a yeast strain carrying the cim5-1 allele encoding a component of the 26-S proteasome that is functional at 25° C. but not at 37° C. (Ghislain et al., 1993) was used. […] (FIG. 3A). […] Thus, the disappearance of Ste7 promoted by IpaH9.8 is proteasome-dependent.
Standard media and techniques were used for transformation, maintenance, and growth of yeast (Guthrie C, 1991). Halo assays were performed as described (Hoffman et al., 2002) using disks impregnated with 15 μg of α-factor. erg6 ? yeast were transformed with plasmids encoding IpaH9.8 or IpaH9.8-C337A and grown in selective media containing 1% raffinose to mid log phase. Following addition of MG132 (100 μM) and galactose (2%), cultures were incubated for 2 h and cell extracts were prepared as described (Wang et al., 2003). β-Galactosidase assays were performed as described (Guarente, 1983).

[1] = molecular target: His-tagged UbcH5B, P62837
sst2Δ cells = assay: Growth of sst2Δ yeast in the presence of pheromone; format: cell-based, Saccharomyces cerevisiae; conditions: galactose-induced production, α-factor plates

Sequence of His-tagged UbcH5B, P62837 (P62837 whole entry, looked up): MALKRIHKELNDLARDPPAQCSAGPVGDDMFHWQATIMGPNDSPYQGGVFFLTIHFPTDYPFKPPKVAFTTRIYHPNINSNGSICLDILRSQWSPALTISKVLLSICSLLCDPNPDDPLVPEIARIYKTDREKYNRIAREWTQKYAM

CC(C)C[C@@H](C=O)NC(=O)[C@H](CC(C)C)NC(=O)[C@H](CC(C)C)NC(=O)OCc1ccccc1 [MG132] (Cbz-Leu-Leu-Leu-aldehyde)
disappearance of Ste7 provoked by IpaH9.8 (proteasome): prevented the disappearance of Ste7

B1: GST-SspH1 (protein)
chain: EFMLPINNNFSLPQNSFYNTISGTYADYFSAWDKWEKQALPGEERDEAVSRLKECLINNSDELRLDRLNLSSLPDNLPAQITLLNVSYNQLTNLPELPVTLKKLYSASNKLSELPVLPPALESLQVQHNELENLPALPDSLLTMNISYNEIVSLPSLPQALKNLRATRNFLTELPAFSEGNNPVVREYFFDRNQISHIPESILNLRNECSIHISDNPLSSHALQALQRLTSSPDYHGPRIYFSMSDGQQNTLHRPLADAVTAWFPENKQSDVSQIWHAFEHEEHANTFSAFLDRLSDTVSARNTSGFREQVAAWLEKLSASAELRQQSFAVAADATESCEDRVALTWNNLRKTLLVHQASEGLFDNDTGALLSLGREMFRLEILEDIARDKVRTLHFVDEIEVYLAFQTMLAEKLQLSTAVKEMRFYGVSGVTANDLRTAEAMVRSREENEFTDWFSLWGPWHAVLKRTEADRWAQAEEQKYEMLENEYPQRVADRLKASGLSGDADAEREAGAQVMRETEQQIYRQLTDEVLALRLFENGSQLHHS
removal of ubiquitin from ubiquitinated UbcH5B [1]: SspH1 was endowed with the activities (i) to remove ubiquitin from ubiquitinated UbcH5B

B2: GST-IpaH9.8 (protein)
chain: MLPINNNFSLPQNSFYNTISGTYADYFSAWDKWEKQALPGEERDEAVSRLKECLINNSDELRLDRLNLSSLPDNLPAQITLLNVSYNQLTNLPELPVTLKKLYSASNKLSELPVLPPALESLQVQHNELENLPALPDSLLTMNISYNEIVSLPSLPQALKNLRATRNFLTELPAFSEGNNPVVREYFFDRNQISHIPESILNLRNECSIHISDNPLSSHALQALQRLTSSPDYHGPRIYFSMSDGQQNTLHRPLADAVTAWFPENKQSDVSQIWHAFEHEEHANTFSAFLDRLSDTVSARNTSGFREQVAAWLEKLSASAELRQQSFAVAADATESCEDRVALTWNNLRKTLLVHQASEGLFDNDTGALLSLGREMFRLEILEDIARDKVRTLHFVDEIEVYLAFQTMLAEKLQLSTAVKEMRFYGVSGVTANDLRTAEAMVRSREENEFTDWFSLWGPWHAVLKRTEADRWAQAEEQKYEMLENEYPQRVADRLKASGLSGDADAEREAGAQVMRETEQQIYRQLTDEVLALRLSENGSQLHHS
removal of ubiquitin from ubiquitinated UbcH5B, immunoblot with streptavidin-peroxidase [1]: after ubiquitination of UbcH5B, addition of GST-IpaH9.8 to the reaction mixture promoted the removal of ubiquitin from UbcH5B

B3: IpaH7.8: another IpaH family member from Shigella (protein, UniProt P18014 1-565, looked up)
E3 ubiquitin-protein ligase …: MFSVNNTHSSVSCSPSINSNSTSNEHYLRILTEWEKNSSPGEERGIAFNRLSQCFQNQEAVLNLSDLNLTSLPELPKHISALIVENNKLTSLPKLPAFLKELNADNNRLSVIPELPESLTTLSVRSNQLENLPVLPNHLTSLFVENNRLYNLPALPEKLKFLHVYYNRLTTLPDLPDKLEILCAQRNNLVTFPQFSDRNNIRQKEYYFHFNQITTLPESFSQLDSSYRINISGNPLSTRVLQSLQRLTSSPDYHGPQIYFSMSDGQQNTLHRPLADAVTAWFPENKQSDVSQIWHAFEHEEHANTFSAFLDRLSDTVSARNTSGFREQVAAWLEKLSASAELRQQSFAVAADATESCEDRVALTWNNLRKTLLVHQASEGLFDNDTGALLSLGREMFRLEILEDIARDKVRTLHFVDEIEVYLAFQTMLAEKLQLSTAVKEMRFYGVSGVTANDLRTAEAMVRSREENEFTDWFSLWGPWHAVLKRTEADRWAQAEEQKYEMLENEYSQRVADRLKASGLSGDADAEREAGAQVMRETEQQIYRQLTDEVLALRLSENGSRLHHS
growth of sst2Δ cells in the presence of pheromone (sst2Δ cells): rescued the pheromone-induced growth arrest of sst2Δ cells
